First the molecules themselves.
B1: HDV Ribozyme (parent)
chain: GGCCGGCAUGGUCCCAGCCUCCUCGCUGGCGCCGGCUGGGCAACAUUCCGAGGGGACCGUCCCCUCGGUAAUGGCGAAUGGGACCCA

The source of these data is the RNAGym collection of RNA variant scans (doi:10.7554/elife.80360).

The variants in this data set derive from B1. The experiment in a line: self-cleavage, relative activity (ratio to wild type); higher = more cleavage; co-transcriptional.
As to C4G U47A, the self-cleavage came to 0.346.

On to G1A U37G, for which the self-cleavage was 0.158.

For C13A C41G, the self-cleavage was determined as 0.0504.

As for C21G G73U, the self-cleavage came to 0.026.

Regarding G6U C19A, the self-cleavage is 0.0326.

Take C21U A45G: the self-cleavage was determined as 0.291.

With A42C C58G, the self-cleavage was 0.26.

Consider G31U G52U, for which the self-cleavage stood at 0.492.

G29U A83U: the self-cleavage stood at 0.102.

As to U27A C33U, the self-cleavage came to 1.01.

For the variant C18U G82U, the self-cleavage turned out to be 0.111.

Turning to A8U A51U, the self-cleavage was 0.787.

Turning to G5U G80U, the self-cleavage amounted to 0.0405.

In the case of C66G C84G, the self-cleavage worked out at 0.745.

For C13G G29C, the self-cleavage turned out to be 0.0415.

Consider A43U G76A, for which the self-cleavage stood at 0.554.

For G17C C21A, the self-cleavage turned out to be 0.0519.

With A51C G76C, the self-cleavage was 0.982.

In the case of G11U U65A, the self-cleavage worked out at 0.321.

G10A U60A: the self-cleavage was 0.739.

G50C A51C: the self-cleavage is 0.814.

Take A42G G50C: the self-cleavage came out at 0.287.

As to G10U G31U, the self-cleavage came to 0.181.

On to C3G C75U, for which the self-cleavage came to 0.0863.

As to C30A G80U, the self-cleavage came out at 0.153.

As for C30G G59U, the self-cleavage was 0.0744.

On to G34C A71U, for which the self-cleavage is 0.095.

For the variant G17C A45G, the self-cleavage was 0.119.

In the case of G11C C30G, the self-cleavage amounted to 0.

Consider C22U U27C, for which the self-cleavage stood at 0.312.

As for A42U C84U, the self-cleavage amounted to 0.181.

For the variant C18A C19G, the self-cleavage stood at 0.145.

Regarding U27C G29A, the self-cleavage worked out at 0.125.

In the case of U27C G29C, the self-cleavage stood at 0.107.

For the variant A43U U79C, the self-cleavage was 0.127.

Consider G34U G59C, for which the self-cleavage came out at 0.142.

With C22G G59C, the self-cleavage came out at 0.151.

On to G34U C85A, for which the self-cleavage stood at 0.164.

On to G59U C61A, for which the self-cleavage turned out to be 0.968.

Regarding G10U G73U, the self-cleavage worked out at 0.0639.

For C36U G59C, the self-cleavage came to 0.923.

With U27A G52U, the self-cleavage worked out at 0.846.

As for C3A C44G, the self-cleavage is 0.0615.

Consider G40A C62G, for which the self-cleavage was 0.432.

Take U27G G82U: the self-cleavage turned out to be 0.095.

As to U46C C57G, the self-cleavage amounted to 1.04.

For C18G A83U, the self-cleavage turned out to be 0.101.

Consider G11U G73C, for which the self-cleavage is 0.126.

Take C3G A78C: the self-cleavage is 0.134.

Consider G17A U23G, for which the self-cleavage was 0.427.

C7G C22G: the self-cleavage came to 0.0791.

A43C U65C: the self-cleavage is 0.482.

For U27A G74A, the self-cleavage was 0.0437.

Regarding G40C G76C, the self-cleavage was 0.197.

As for A51U C66A, the self-cleavage came to 0.764.

With C19U G54A, the self-cleavage was 0.179.

C41U C86U: the self-cleavage is 0.967.

Take G11U A83U: the self-cleavage worked out at 0.138.

Turning to A45G U65G, the self-cleavage was 0.782.

In the case of C19U A51C, the self-cleavage amounted to 0.204.

For the variant G40A G59A, the self-cleavage worked out at 0.87.

Turning to G6A U79C, the self-cleavage came to 0.128.

For the variant G35A C63G, the self-cleavage turned out to be 0.346.

As to C41U C61G, the self-cleavage worked out at 0.923.

Consider G10A C48U, for which the self-cleavage is 0.895.

C13G A45U: the self-cleavage is 0.0346.

For the variant C21U G25A, the self-cleavage was 0.0997.

As to C32G G53A, the self-cleavage stood at 0.205.

For the variant U23A G76C, the self-cleavage was determined as 1.1.

Regarding G29U G53A, the self-cleavage stood at 0.0432.

On to C62A C84U, for which the self-cleavage was 0.618.

As to C62G G67A, the self-cleavage turned out to be 0.095.

Take C7G U12A: the self-cleavage came to 0.

Regarding G10A A71C, the self-cleavage was 0.456.

Take G10A A71G: the self-cleavage worked out at 0.703.

C66U G82U: the self-cleavage was determined as 0.277.

As for C63G C64A, the self-cleavage is 0.862.

In the case of G2C C4G, the self-cleavage came to 0.794.

Take U60G A83C: the self-cleavage was determined as 0.612.

Consider C14U G40U, for which the self-cleavage came out at 0.724.

With G10A U27C, the self-cleavage stood at 0.759.

Regarding G38C C85U, the self-cleavage was 0.185.

With C15U G55C, the self-cleavage amounted to 0.895.

Take C19G A42G: the self-cleavage was 0.

Consider U9G U69A, for which the self-cleavage came out at 0.831.

G52U A56U: the self-cleavage turned out to be 0.787.

Regarding C49U U60C, the self-cleavage is 1.04.

In the case of G53C A71U, the self-cleavage stood at 1.1.

For the variant C3G U27G, the self-cleavage was 0.479.

On to G2U G5A, for which the self-cleavage is 0.0171.

Regarding G2U G5U, the self-cleavage was 0.0163.

Take C15U G52U: the self-cleavage turned out to be 1.21.

In the case of A71C U72G, the self-cleavage came to 0.465.

As to U23C G35A, the self-cleavage was 0.655.

As for G59U C63A, the self-cleavage worked out at 0.935.

Turning to G11C G68A, the self-cleavage turned out to be 0.295.

Turning to G28C G38U, the self-cleavage was found to be 0.162.

For the variant G35A A77G, the self-cleavage stood at 0.277.

Consider A56G C63A, for which the self-cleavage came out at 0.831.

Turning to G2U G25U, the self-cleavage was 0.0449.

Turning to U23G C49G, the self-cleavage amounted to 0.346.

Turning to C32U A42G, the self-cleavage came to 0.244.

For the variant A8G C33U, the self-cleavage was found to be 0.751.

As for C58U A71G, the self-cleavage amounted to 1.08.

As for C3G G50C, the self-cleavage was 0.475.

As to U79A G81C, the self-cleavage worked out at 0.0504.

Regarding U69G G82C, the self-cleavage was determined as 0.429.

In the case of G10A C15U, the self-cleavage stood at 0.332.

With G10U G29U, the self-cleavage amounted to 0.0475.

On to U9G G10A, for which the self-cleavage was found to be 1.25.

C14G A42U: the self-cleavage came to 0.252.

For the variant G31C C85G, the self-cleavage is 0.341.

Regarding G73C C75U, the self-cleavage worked out at 0.0755.

Regarding U72C G76C, the self-cleavage is 0.779.

With A45U A70G, the self-cleavage came out at 0.808.

On to C22U U60C, for which the self-cleavage is 0.767.

As to C7U C19A, the self-cleavage is 0.157.

For G6U G68U, the self-cleavage came to 0.554.

As for G25C A78G, the self-cleavage was 0.

As to C32G U47G, the self-cleavage is 0.0594.

Consider C49A G55U, for which the self-cleavage is 1.18.

In the case of G28U G81A, the self-cleavage was 0.158.

For the variant G25U G40U, the self-cleavage came to 0.193.

For C4G G10C, the self-cleavage was 0.237.

With C4G G10U, the self-cleavage was 0.0779.

A43C U79C: the self-cleavage worked out at 0.113.

Turning to C33U G68A, the self-cleavage was found to be 0.796.

For U20G G55U, the self-cleavage was 0.332.

G6U G76C: the self-cleavage worked out at 0.676.

For G52A U79G, the self-cleavage turned out to be 0.718.

Take G25U G54U: the self-cleavage was 0.228.

As to C4G C62U, the self-cleavage is 0.388.

Regarding G52U A71C, the self-cleavage was 0.745.

In the case of C13G C19G, the self-cleavage amounted to 0.0791.

Take G40C C57A: the self-cleavage came to 0.295.

Turning to G39A A43U, the self-cleavage turned out to be 0.0241.

With C41U C63U, the self-cleavage came out at 1.12.

Turning to C26G G55C, the self-cleavage was 1.04.

With G6C A16C, the self-cleavage was 0.712.

For the variant C15A A70C, the self-cleavage amounted to 0.554.

As to C15G U23C, the self-cleavage worked out at 0.332.

As for C58A C63G, the self-cleavage was 0.932.

Consider C57A A77C, for which the self-cleavage was 0.314.

Consider A42G C66A, for which the self-cleavage came to 0.702.

With A43U G82A, the self-cleavage is 0.0811.

Take C41A C48G: the self-cleavage was found to be 0.898.

With C63U A78G, the self-cleavage was 0.755.

Regarding C63U A78C, the self-cleavage stood at 0.237.

As to A70G G80A, the self-cleavage came out at 0.271.

For the variant C19U C24G, the self-cleavage came to 0.0475.

Consider C24A G29C, for which the self-cleavage turned out to be 0.136.

Turning to C3U A42G, the self-cleavage stood at 0.483.

Turning to G28U G55C, the self-cleavage is 0.138.

On to A83C C84A, for which the self-cleavage was found to be 0.78.

On to C3U U37C, for which the self-cleavage came to 1.08.

As to G2U G11U, the self-cleavage is 0.0529.

Consider G52U C85A, for which the self-cleavage was determined as 0.784.

In the case of A8C A78C, the self-cleavage was 0.302.

Consider G35U C86U, for which the self-cleavage came out at 0.464.

Consider C3A U23A, for which the self-cleavage amounted to 0.475.

On to C4U G38A, for which the self-cleavage worked out at 0.0978.

Consider G6C C32A, for which the self-cleavage worked out at 0.482.

Consider G11U G80A, for which the self-cleavage was 0.136.

G50A U69G: the self-cleavage worked out at 0.76.

As for G6A U72A, the self-cleavage is 0.0875.

Turning to C7G A42U, the self-cleavage was determined as 0.0665.

Consider G1C U60G, for which the self-cleavage amounted to 0.0594.
